Key:
[1] = substrate: Nc1ncnc2c1ncn2[C@@H]1O[C@H](COP(=O)(O)OP(=O)(O)OP(=O)(O)O)[C@@H](O)[C@H]1O; assay: purified protein; type: biochemical, Entamoeba histolytica; details: apparent, FMN fixed 200 µM (table footnote prints mM), 5 mM MgCl2, 50 mM Tris-HCl pH 7.5, 35°C
[2] = substrate: Cc1cc2nc3c(=O)[nH]c(=O)nc-3n(C[C@H](O)[C@H](O)[C@H](O)COP(=O)(O)O)c2cc1C; assay: purified protein; type: biochemical, Entamoeba histolytica; details: apparent, ATP fixed 100 µM (table footnote prints mM), 5 mM MgCl2, 50 mM Tris-HCl pH 7.5, 35°C

B1: EhFADS (EHI_198800) (Entamoeba histolytica HM-1:IMSS) (protein)
chain: MKGKTKQTKQILHDLKERFGEGPYEVMIAGTFDLIHPGHIHFIQEAAQFGRVIVIIARDSVVKRIKQRETVLDEKMRQSIVEGIKGVSEVVLGCENGNWYEPILKRNPHLFLMGFNQPGDLFRFEKVIHEKGGRTIFRRSNSMEKSYSLQSSSQIRRRVIEIVNNKIQ
**Q.** B1 was tested. Which Km [1] did it give?
**A.** 0.0439 ± 0.0079 mM

**Q.** What about the Vmax [1] of the same protein?
**A.** 0.0649 µmol/min/mg

**Q.** What about the kcat [1] of the same protein?
**A.** 0.0218 ± 0.000333 s⁻¹

**Q.** And the Km [2]?
**A.** 0.0707 ± 0.0071 mM

**Q.** What about the Vmax [2] of the same protein?
**A.** 0.06 µmol/min/mg

**Q.** What about the kcat [2] of the same protein?
**A.** 0.0202 ± 0.002 s⁻¹
